Test results taken from patent publication US20240299596A1, “METHODS AND MATERIALS FOR COMBINING BIOLOGICS WITH MULTIPLE CHELATORS” (priority 2021, published 2024).

Key:
[1] = Stability of ^64Cu-Conjugate 2 over time by HPLC; type: physicochemical
Procedure: The method used a Schmadzu HPLC system, which was equipped with dual UV and radioactivity detectors. […] Conjugate 2 was tested with varying concentrations (Table 18A below). […] For analysis, the compound was dissolved in water and a calibration curve was prepared to estimate the specific activity of the synthesized compound. Depending upon the chemical nature of the compound a different retention time was observed.
The stability of the ^64Cu-Conjugate 2 was tested using the same HPLC method as the Conjugate 2 at various time points. The time points included: 40 minutes (Tables 23-24 and FIG. 22), 2 hours (Tables 25-26 and FIG. 23), 4 hours (Tables 27-28 and FIG. 24), and 8 hours (Tables 29-30 and FIG. 25).

[2] = Stability of ^64Cu-Conjugate 2 over time by TLC; type: physicochemical; details: silica gel, 0.1M sodium citrate
Procedure: The Conjugate-1 was radiolabeled with Cu-64 using [^64Cu]CuCl2 produced from cyclotron and formulated in 0.1M hydrochloric acid. Different amounts (50 μg, 100 μg) of Conjugate-1 were used and the pH was adjusted to 5.0 using 0.1M sodium acetate after addition of [^64Cu]CuCl2. The resultant reaction mixture was stirred at room temperature for different durations as 10 minutes, 20 minutes, 30 minutes, and 40 minutes to optimize radiolabeling yield with reaction time. The progress and yield of the reactions were monitored by radioactive thin layer chromatography (r-TLC) using iTLC (silica gel coated on paper, Agilent Technologies Inc., Santa Clara, CA) and 0.1M sodium citrate as a mobile phase. In this r-TLC condition, unconjugated (Free)^64Cu moves to the solvent front of the r-TLC and radiolabeled ^64Cu-Conjugate-1 stays at the origin of the r-TLC plate. Based on our tested radiolabeling condition, the reaction achieved >99% yield radiolabeling in 10 minutes and at all other time points at pH 5.0 using sodium acetate as a reaction buffer via stirring at room temperature. Formation of radiolabeled ^64Cu-Conjugate-1 was also confirmed by radio HPLC.
The TLC was performed with a silica gel solid phase and 0.1M sodium citrate mobile phase.
The stability of the ^64Cu-Conjugate 2 was also analyzed by TLC using the same TLC method as the ^64Cu-Conjugate 1 at various time points. The time points included: 40 minutes (Table 31 and FIG. 26), 2 hours (Table 32 and FIG. 27), 4 hours (Table 33 and FIG. 28), 8 hours (Table 34 and FIG. 29).

[3] = in vitro; type: in vitro ADME, mouse
Procedure: The stability of the ^64Cu-Conjugate 2 was tested in mouse serum and human serum at 37° C. using the Rad-iTLC method. Approximately 1.0 mL of mouse serum was extracted from blood of the mice and ˜1.0 mL of human serum was extracted from blood obtained from the Mayo Clinic's blood bank to measure the stability of radiolabeled ^64Cu-Conjugate 2. Obtained mouse and human serums were distributed separately in 100 μL aliquots in 1.5 mL microcentrifuge tubes (n=3). To which, 20 μL of ^64Cu-Conjugate2 was added in each 100 μL serum aliquot and mixed thoroughly. From this mixture, a small amount of reaction mixture was taken out using glass capillary tube and immediately spotted on an iTLC plate for analysis as T=0 timepoint (n=3). The rest of the reaction mixtures were incubated at 37° C. for up to 2 hours and small fractions were taken out at 1 hour and 2 hours post incubation to analyze the stability of ^64Cu-Conjugate 2 over time using radioactive thin layer chromatography (r-TLC). To do r-TLC analysis, iTLC (silica gel coated on paper, Agilent Technologies Inc., Santa Clara, CA) was used as a solid phase and 0.1M sodium citrate as a mobile phase. In this r-TLC condition, unconjugated (free)^64Cu moves to the solvent front of the r-TLC and radiolabeled ^64Cu-Conjugate 2 stays at the origin of the r-TLC plate. Based on the relative % of radioactivity at origin and at the solvent front, the % of intact ^64Cu-Conjugate2 and free ^64Cu was measured as presented in Tables 35 and 36.

[4] = Micro PET imaging and ex-vivo biodistribution (SUV) in normal nude mice; set-up: species or system normal nude mice (strain: 002019, NU/J); details: mouse
Text: in accordance with Loening AM and Gambhir SS. […] Mol Imaging 2003; 2:131-7.

In the case of `NC(=O)CN1CCN(CC(N)=O)CCN(CC(N)=O)C(Cc2ccc(NC(=S)NCCN(CCNC(=S)Nc3ccc(CC4CN(CC(=O)O)CCN(CC(=O)O)CCN4CC(=O)O)cc3)C(=O)Cc3ccc(NC(=S)NCCCC[C@H](NC(=O)N[C@@H](CCC(=O)O)C(=O)O)C(=O)O)cc3)cc2)CN(CC(N)=O)CC1` (some centres unmarked) [^64Cu-Conjugate 2, metal not drawn], the “% Conc. of main HPLC peak” value ([1]; 40 minutes, Table 23 trace, peak at Ret. Time 9.335) is reported as 99.894%, the “% Conc. of main HPLC peak” value ([1]; 40 minutes, Table 24 trace, peak at Ret. Time 8.609) is reported as 98.297% and the “% Conc. of main HPLC peak” value ([1]; 2 hours, Table 25 trace, peak at Ret. Time 9.298) is reported as 99.770%. The “% Conc. of main HPLC peak” value ([1]; 2 hours, Table 26 trace, peak at Ret. Time 8.572) was 98.718%, the “% Conc. of main HPLC peak” value ([1]; 4 hours, Table 27 trace, peak at Ret. Time 9.286) was 99.463% and the “% Conc. of main HPLC peak” value ([1]; 4 hours, Table 28 trace, peak at Ret. Time 8.555) was 98.453%. For the same compound, the “% Conc. of main HPLC peak” value ([1]; 8 hours, Table 29 trace, peak at Ret. Time 9.359) was 99.107%, the “% Conc. of main HPLC peak” value ([1]; 8 hours, Table 30 trace, peak at Ret. Time 8.562) was 98.173% and the “% of ROI, Rgn 1 (origin, radiolabeled conjugate)” value ([2]; 40 minutes) was 99.62%. For the same compound, the “% of ROI, Rgn 2 (solvent front, free ^64Cu)” value ([2]; 40 minutes) was 0.38%, the “% of ROI, Rgn 1 (origin, radiolabeled conjugate)” value ([2]; 2 hours) was 99.40% and the “% of ROI, Rgn 2 (solvent front, free ^64Cu)” value ([2]; 2 hours) was 0.60%. For the same compound, the “% of ROI, Rgn 2 (solvent front, free ^64Cu)” value ([2]; 4 hours) was 0.36%, the “% of ROI, Rgn 1 (origin, radiolabeled conjugate)” value ([2]; 8 hours) was 99.19% and the “% of ROI, Rgn 2 (solvent front, free ^64Cu)” value ([2]; 8 hours) was 0.81%. For the same compound, the “Intact (%), Average” value [3] was 98.26%, the “Stability in mouse serum (in words)” value [3] was “stable up to 2 hours in mouse serum” and the remaining at 1 h ([3]; mouse, serum) was 96.8%. The remaining at 2 h ([3]; mouse, serum) was 97.6% and the “Site of accumulation in PET image” value [4] was “accumulates in proximal tubules in the kidney”.
